The source of these data is PMC3755989, “Identification of Amino Acid Residues of ERH Required for Its Recruitment to Nuclear Speckles and Replication Foci in HeLa Cells” (PLoS ONE, 2013).

In the test the target is T1, FLAG-tagged wild-type human ERH (enhancer of rudimentary homolog) (human, UniProt P84090 1-104).
T1 construct: wild-type human ERH, expressed from pQE30/ERH-FLAG (formerly pQE30/ER-FLAG); also called ERH-FLAG; wild-type ERH
The test can be described thus: pull-down; GST-PDIP46/SKAR[L7]- or GST-Ciz1[B]-coated Glutathione-Agarose beads incubated with equal amounts of purified FLAG-tagged ERH forms; binding buffer 20 mM HEPES pH 7.4, 50 mM NaCl, 75 mM KCl, 1 mM DTT, 1 mM EDTA, 10% glycerol, 0.05% Triton X-100; western blotting with anti-FLAG antibody. As to conditions: both partners purified. (In general: In western blotting, separated proteins are transferred to a membrane and probed.)

B1: GST-tagged fragment L7 of human PDIP46/SKAR (domain or fragment)
chain: NKEEPPKELPAAEPVLSPLEGTKMTVNNLHPRVTEEDIVELFCVCGALKRARLVHPGVAEVVFVKKDDAITAYKKYNNRCLDGQPMKCNLHMNGNVITSDQPILLRLSDSPSMKKESELPRRVNSASSSNPPAEVDPDTILKALFKSSGASVTTQPTEFKIKL
notes: fragment L7 of human PDIP46/SKAR comprising residues 259-421, expressed from pGEX-4T-1/PDIP46/SKAR[L7]; also called GST-PDIP46/SKAR[L7]; PDIP46/SKAR[L7]; source: E. coli XL1 Blue MRF', batch purified on Glutathione-Agarose beads
Turning to B1, the binding result was “binds”.
